Assay results reported in patent US20130330359A1 (AbbVie / Abbott, published 2013).
Changes are numbered by the printed parent chain.

T1: carrier free RGMa (R&D Systems) (UniProt Q96B86 48-422, limits assumed)
T1 construct: also called RGMa-CF
T1 sequence (looked up): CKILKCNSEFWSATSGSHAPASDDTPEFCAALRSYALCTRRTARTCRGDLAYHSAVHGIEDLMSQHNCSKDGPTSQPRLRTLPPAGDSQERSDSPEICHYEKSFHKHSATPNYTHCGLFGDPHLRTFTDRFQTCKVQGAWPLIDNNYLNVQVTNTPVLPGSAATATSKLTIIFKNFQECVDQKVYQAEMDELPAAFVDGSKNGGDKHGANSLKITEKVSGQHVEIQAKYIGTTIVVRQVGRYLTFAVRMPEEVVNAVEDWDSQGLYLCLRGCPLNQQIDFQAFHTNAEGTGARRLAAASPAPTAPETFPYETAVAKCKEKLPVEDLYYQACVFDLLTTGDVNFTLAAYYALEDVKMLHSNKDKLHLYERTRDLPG

T2: carrier free RGMb (R&D Systems) (UniProt Q6NW40 46-413, limits assumed)
T2 construct: also called RGMb-CF
T2 sequence (looked up): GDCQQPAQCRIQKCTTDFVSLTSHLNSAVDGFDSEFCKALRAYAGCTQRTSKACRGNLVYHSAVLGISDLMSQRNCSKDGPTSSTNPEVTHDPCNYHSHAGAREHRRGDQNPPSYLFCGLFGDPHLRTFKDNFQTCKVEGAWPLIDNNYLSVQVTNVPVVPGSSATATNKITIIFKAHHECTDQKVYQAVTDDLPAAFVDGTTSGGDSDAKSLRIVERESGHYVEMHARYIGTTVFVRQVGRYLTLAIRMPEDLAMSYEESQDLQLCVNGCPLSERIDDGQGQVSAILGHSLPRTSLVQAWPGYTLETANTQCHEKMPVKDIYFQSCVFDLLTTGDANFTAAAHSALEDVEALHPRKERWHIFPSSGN

T3: carrier free RGMc (R&D Systems) (human, UniProt Q6ZVN8 36-400)
T3 construct: also called RGMc-CF
T3 sequence (looked up): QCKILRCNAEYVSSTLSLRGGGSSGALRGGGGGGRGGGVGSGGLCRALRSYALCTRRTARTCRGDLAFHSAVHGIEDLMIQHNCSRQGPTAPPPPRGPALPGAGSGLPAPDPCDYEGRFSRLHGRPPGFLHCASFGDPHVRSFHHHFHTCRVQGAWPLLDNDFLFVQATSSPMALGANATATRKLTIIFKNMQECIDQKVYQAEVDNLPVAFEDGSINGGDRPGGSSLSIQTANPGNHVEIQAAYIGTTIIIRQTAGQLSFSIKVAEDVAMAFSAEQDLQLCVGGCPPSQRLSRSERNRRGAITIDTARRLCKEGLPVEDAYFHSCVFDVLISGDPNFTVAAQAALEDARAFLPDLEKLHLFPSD

B1: 1A-2989-187 (antibody, V domains shown)
VH: EVQLQQSGAELVRSGASVKLSCTASGFNIRDFYIHWVKQRPEQGLEWLGWIDPENGDIEYAPKFQGKATMTADTSSNTAYLQLNSLTSEDTALYYCNGNGYYLDYWGQGTTLTVSS
VL: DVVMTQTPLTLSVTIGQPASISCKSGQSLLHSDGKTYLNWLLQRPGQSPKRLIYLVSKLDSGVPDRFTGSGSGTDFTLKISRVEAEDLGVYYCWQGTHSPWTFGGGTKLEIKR
B2: 1A-2860-475 (antibody, V domains shown)
VH: DVLLQESGPDLVKPSQSLSLTCTVTGYSISSGYSWHWIRQFPGNKLEWMAYIHYTGNTNYNPSLKSRISITRDTSKNQFFLHLNSVTTEDTATYYCALFGLSGFWGQGTLVTVSA
VL: DVLMTQTPLSLPVSLGDQASISCRSSQTIVHSNGNTYLDWYLQKPGQSPKVLIYKVSNRFSGVPDRFSGSGSGTDFTLKISRVEAEDLGVYFCLQGSHVPWTFGGGTQLEIKR
notes: The parent line 1A-2860 and subclone 1A-2860-177 used in the assays are treated here as the same antibody; also called 1A-2860-177
B3: 1B-3363-715 (antibody, V domains shown)
VH: DVQLQESGPDLVKPSQSLSLTCTVTGYSITSGYSWHWIRQFPGNKLEWMGYIHYSGNTDYNPSLKSRISFTRDTSKNQFFLQLNSVTTEDTATYFCAIGTGPWGQGTTLTVSS
VL: B2 VL with T28N, N35H, D39E, V51L, F92Y, L94F, Q108K
notes: The parent line 1B-3363 and subclone 1B-3363-502 used in the assays are treated here as the same antibody; also called 1B-3363-502

Target: T1, carrier free RGMa (R&D Systems)
Assay: EIA on coated carrier-free RGMa (summary of specificity)
Method: (§1) Clones were then tested for cross-reactivity with RGMa and RGMb by EIA. Carrier free RGMa, RGMb, or RGMc (R&D Systems) was coated on the solid phase of micro-titer EIA plates at 0.5 ug/mL. After the antigen had been coated on the solid phase, it was removed and any open binding sites on the plates were blocked using fish gel block solution. The wells were washed with distilled water following this incubation. Cell supernatants and control reagents were added to the blocked plates and allowed to incubate at room temperature for at least one hour. The negative control was a purified mouse mAb from a different antigen system. The positive control for RGMa, RGMb, & RGMc was a goat anti-RGMa, RGMb, or RGMc polyclonal antibody (R&D Systems). Following this incubation, the solutions were removed from the plates and they were washed with distilled water. Donkey anti-Goat IgG-HRPO diluted to approximately 200 ng/mL in block solution was added to the plates with the positive control test samples and goat anti-mouse IgG-HRPO (Jackson Immunoresearch) diluted to approximately 200 ng/mL in block solution was added to the plates with the fusion #1 test samples. All plates were allowed to incubate for 30 minutes at room temperature. The plates were washed with distilled water and o-phenylenediamine substrate was used as the chromogen to generate signal. Plates were read at 492 nm and the results were analyzed.

Row | Binder | binding result
1 | B1 | no binding
2 | B2 | no binding
3 | B3 | no binding

Target: T1, carrier free RGMa (R&D Systems)
Assay: direct EIA: carrier-free RGMa coated at 0.5 ug/mL; supernatant diluted 1:125; goat anti-mouse IgG-HRPO
Method: as §1

Row | Binder | absorbance at 492 nm
4 | B1 | 0.07
5 | B2 | 0.08
6 | B3 | 0.09

Target: T2, carrier free RGMb (R&D Systems)
Assay: direct EIA: carrier-free RGMb coated at 0.5 ug/mL; supernatant diluted 1:125; goat anti-mouse IgG-HRPO
Method: as §1

Row | Binder | absorbance at 492 nm
7 | B1 | 0.07
8 | B2 | 0.06
9 | B3 | 0.09

Target: T3, carrier free RGMc (R&D Systems)
Assay: direct EIA: carrier-free RGMc coated at 0.5 ug/mL; supernatant diluted 1:125; goat anti-mouse IgG-HRPO
Method: as §1

Row | Binder | absorbance at 492 nm
10 | B1 | 1.58
11 | B2 | 1.34
12 | B3 | 2.53

Target: T4, mouse:human chimeric antibody (used as human IgG / human IgG Fc antigen)
T4 construct: also called Hu IgG; human IgG Fc portion
Assay: direct EIA: mouse:human chimeric antibody coated at 1.0 ug/mL; supernatant diluted 1:125; goat anti-mouse IgG Fc-HRPO
Method: A mouse:human chimeric antibody or RGMc-huFc was coated on the solid phase of micro-titer EIA plates at 1.0 ug/mL. After the antigen had been coated on the solid phase, it was removed and any open binding sites on the plates were blocked using BSA block solution. The wells were washed with distilled water. Cell supernatants and control reagents were added to the blocked plates and allowed to incubate at room temperature for at least one hour. The negative control was a purified mAb from a different antigen system. The positive control for human IgG was a purified anti-hu IgG mAb developed against another antigen containing human IgG Fc carrier protein. The RGMc positive control is Novus mab 1C12. Following this incubation, the solutions were removed from the plates and they were washed with distilled water. Goat anti-mouse IgG Fc-HRPO (Jackson Immunoresearch) diluted to approximately 200 ng/mL in block solution was added to the plates and allowed to incubate for 30 minutes at room temperature. The plates were washed with distilled water and o-phenylenediamine substrate (Abbott Laboratories) was used as the chromogen to generate signal. Plates were read at 492 nm and the results were analyzed.

Row | Binder | absorbance at 492 nm
13 | B1 | 0.06
14 | B2 | 0.06
15 | B3 | 0.07
